Measurements as given in PMC10891604.

Molecular target: T1, Lmo1172 (UniProt Q92CN5)
T1 sequence: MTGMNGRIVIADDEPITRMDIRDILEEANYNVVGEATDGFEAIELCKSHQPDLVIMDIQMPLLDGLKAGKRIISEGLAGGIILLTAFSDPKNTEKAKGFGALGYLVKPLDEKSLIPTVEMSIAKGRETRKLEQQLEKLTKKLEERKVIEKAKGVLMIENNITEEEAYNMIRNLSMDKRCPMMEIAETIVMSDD
Assay: EMSA
Conditions: EMSA: 200 ng DNA in Beyotime binding buffer, 6% non-denaturing PAGE, ethidium bromide staining; salt, pH and temperature not stated

## CTAATTCACCTCCACTAATATTTTACAACGAATTTACCCATAATAACCAAAAATGTAATGAAATGTCCGATTCTTGTCATGAACGACCAAAAAAGAGCAGAATTGCCGATTTTTTGGATACATTTCAGAATATTCGAACGTGTAAAAAGGACTGTATAATAGGCTTAAAAACCCATATTAATATTTTATTTAAGTGAGTTTATTCATAAAAAAAACCAACTGCAAAAGAATGTTCACAGTTGGCTTTTCCATTTTA (double strand) [P2 promoter DNA]
  binding: no binding
